According to publication PMC6327041 (Nature Communications, 2019):

Target: T1, KDM5A1-797 (Homo sapiens, UniProt P29375)
T1 construct: KDM5A1-797 was cloned into a pFASTBAC HTA vector; His (N, cleaved yes); made in house; host or cells: Sf21 insect cells (baculovirus)
T1 sequence (P29375 1-797): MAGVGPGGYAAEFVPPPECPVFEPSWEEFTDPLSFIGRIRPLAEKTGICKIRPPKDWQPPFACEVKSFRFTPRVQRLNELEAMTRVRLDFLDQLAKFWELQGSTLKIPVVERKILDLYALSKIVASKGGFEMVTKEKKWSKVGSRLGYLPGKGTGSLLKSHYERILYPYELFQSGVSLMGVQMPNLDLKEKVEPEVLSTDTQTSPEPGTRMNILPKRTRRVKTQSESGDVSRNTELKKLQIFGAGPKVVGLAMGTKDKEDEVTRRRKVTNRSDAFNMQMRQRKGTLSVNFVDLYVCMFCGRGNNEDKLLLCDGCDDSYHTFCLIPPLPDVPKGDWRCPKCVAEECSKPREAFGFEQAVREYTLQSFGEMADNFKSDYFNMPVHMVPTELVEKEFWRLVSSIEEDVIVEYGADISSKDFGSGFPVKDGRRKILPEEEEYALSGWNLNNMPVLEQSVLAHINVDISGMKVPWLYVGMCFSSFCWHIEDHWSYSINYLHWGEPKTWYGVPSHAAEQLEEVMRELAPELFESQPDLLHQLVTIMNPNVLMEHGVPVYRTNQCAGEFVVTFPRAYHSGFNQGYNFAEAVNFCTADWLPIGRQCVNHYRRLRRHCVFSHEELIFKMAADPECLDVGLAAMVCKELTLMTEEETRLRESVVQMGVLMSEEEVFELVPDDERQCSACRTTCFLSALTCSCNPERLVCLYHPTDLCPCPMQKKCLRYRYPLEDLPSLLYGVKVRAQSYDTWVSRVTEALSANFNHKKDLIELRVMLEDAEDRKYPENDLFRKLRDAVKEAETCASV
Experiment: Lysine crosslinking MS
Details: H3 effector peptide 40 µM, BS^3-H12/D12, 1 h, 4 °C
Description: Hundred micrograms of KDM5A1-797 was crosslinked with 1 mM BS^3-H12 for 1 h at 4 °C. […] After quenching with 50 mM Tris-base, the light and heavy crosslinked reaction mixtures were combined and precipitated with ice cold acetone. Crosslinked proteins were pelleted by spinning at 21,000 × g, the supernatant was removed, and the pellet was washed once with cold acetone. The precipitate was brought up in 8 M Urea, 10 mM TCEP, heated at 56 °C for 20 min, and then alkylated with 15 mM iodoacetamide (45 min at room temperature). The sample was diluted to 2 M Urea and digested […] with 0.8 µg trypsin for 4 h at 37 °C. A second aliquot of trypsin was then added and digestion was allowed to proceed overnight. […]
LC-MS analysis was performed with a Q-Exactive Plus mass spectrometer (Thermo Scientific) coupled with a nanoelectrospray ion source (Easy-Spray, Thermo) and NanoAcquity UPLC system (Waters). […] Precursor MS scans were measured in the Orbitrap scanning from 350 to 1500 m/z (mass resolution: 70,000). The ten most intense triply charged or higher precursors were isolated in the quadrupole (isolation window: 4 m/z), dissociated by HCD (normalized collision energy: 23), and the product ion spectra were measured in the Orbitrap (mass resolution: 17,500). […]
For quantitative analysis, precursor ion filtering in Skyline 4.1 was used to extract light:heavy crosslinked precursor ion signals. […]

H3: unmodified N-terminal H3 tail 10mer peptide (H3 Ala1-Ser10), PHD1 effector ligand
changes in lysine crosslinks: minor changes in crosslink occupancy and distribution
